The source of these data is US20180155451A1 (published 2018).

T1: FcγRIIa R (human, UniProt P12318 34-217)
T1 construct: extracellular domain; also called FcgRIIa R type; 2aR
T1 sequence (looked up): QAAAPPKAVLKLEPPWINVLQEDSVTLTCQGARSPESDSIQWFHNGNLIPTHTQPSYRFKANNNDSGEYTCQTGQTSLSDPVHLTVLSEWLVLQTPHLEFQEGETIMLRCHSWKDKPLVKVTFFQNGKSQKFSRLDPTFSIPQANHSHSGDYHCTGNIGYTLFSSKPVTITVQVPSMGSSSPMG

B1: GpH7-B3 variant I336_08L/GpL16-k0 (antibody, human IgG1, kappa)
heavy: not shown
light: DIVMTQSPLSLPVTPGEPASISCQASESLVHSNRNTYLHWYLQKPGQSPQLLIYKVSNRFSGVPDRFSGSGSGTDFTLKISRVEAEDVGVYYCSQNTHVPPTFGQGTKVEIERTVAAPSVFIFPPSDEQLKSGTASVVCLLNNFYPREAKVQWKVDNALQSGNSQESVTEQDSKDSTYSLSSTLTLSKADYEKHKVYACEVTHQGLSSPVTKSFNRGEC
notes: also called Ho Ab I336_08L
B2: GpH7-B3 variant N325_20W/GpL16-k0 (antibody, human IgG1, kappa)
heavy: not shown
light: B1 light
notes: also called Ho Ab N325_20W
B3: GpH7-B3 variant P238_06M/GpL16-k0 (antibody, human IgG1, kappa)
heavy: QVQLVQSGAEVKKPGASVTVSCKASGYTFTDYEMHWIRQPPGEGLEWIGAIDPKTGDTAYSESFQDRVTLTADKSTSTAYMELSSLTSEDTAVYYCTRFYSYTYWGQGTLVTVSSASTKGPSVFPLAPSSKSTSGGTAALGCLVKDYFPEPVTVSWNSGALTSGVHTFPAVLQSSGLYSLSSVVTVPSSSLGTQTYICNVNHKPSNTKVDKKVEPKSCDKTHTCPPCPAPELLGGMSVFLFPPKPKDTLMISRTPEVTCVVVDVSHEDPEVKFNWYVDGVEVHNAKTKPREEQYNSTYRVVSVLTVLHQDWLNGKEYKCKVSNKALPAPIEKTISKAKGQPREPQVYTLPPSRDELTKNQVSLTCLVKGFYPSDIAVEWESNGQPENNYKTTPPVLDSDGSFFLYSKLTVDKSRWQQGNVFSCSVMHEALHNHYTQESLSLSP
light: B1 light
notes: also called Ho Ab P238_06M
B4: GpH7-B3 variant K326_12R/GpL16-k0 (antibody, human IgG1, kappa)
heavy: not shown
light: B1 light
notes: also called Ho Ab K326_12R
B5: GpH7-B3 variant K334_10E/GpL16-k0 (antibody, human IgG1, kappa)
heavy: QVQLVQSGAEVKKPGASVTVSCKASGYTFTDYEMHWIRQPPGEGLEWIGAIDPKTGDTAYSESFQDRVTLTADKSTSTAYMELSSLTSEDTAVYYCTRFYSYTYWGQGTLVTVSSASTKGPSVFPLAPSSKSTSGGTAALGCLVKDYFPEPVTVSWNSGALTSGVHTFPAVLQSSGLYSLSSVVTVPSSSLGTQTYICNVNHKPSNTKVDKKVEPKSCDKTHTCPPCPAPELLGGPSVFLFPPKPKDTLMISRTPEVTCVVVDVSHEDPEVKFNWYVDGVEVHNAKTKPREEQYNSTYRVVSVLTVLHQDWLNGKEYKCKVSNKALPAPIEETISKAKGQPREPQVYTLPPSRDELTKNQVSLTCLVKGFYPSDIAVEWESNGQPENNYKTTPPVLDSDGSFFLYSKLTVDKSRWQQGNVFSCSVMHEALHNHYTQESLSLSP
light: B1 light
notes: also called Ho Ab K334_10E
B6: GpH7-B3 variant K334_02A/GpL16-k0 (antibody, human IgG1, kappa)
heavy: not shown
light: B1 light
notes: also called Ho Ab K334_02A
B7: GpH7-B3 variant L234_04F/GpL16-k0 (antibody, human IgG1, kappa)
heavy: not shown
light: B1 light
notes: also called Ho Ab L234_04F
B8: GpH7-B3 variant K334_13S/GpL16-k0 (antibody, human IgG1, kappa)
heavy: not shown
light: B1 light
notes: also called Ho Ab K334_13S
B9: GpH7-B3 variant N325_07I/GpL16-k0 (antibody, human IgG1, kappa)
heavy: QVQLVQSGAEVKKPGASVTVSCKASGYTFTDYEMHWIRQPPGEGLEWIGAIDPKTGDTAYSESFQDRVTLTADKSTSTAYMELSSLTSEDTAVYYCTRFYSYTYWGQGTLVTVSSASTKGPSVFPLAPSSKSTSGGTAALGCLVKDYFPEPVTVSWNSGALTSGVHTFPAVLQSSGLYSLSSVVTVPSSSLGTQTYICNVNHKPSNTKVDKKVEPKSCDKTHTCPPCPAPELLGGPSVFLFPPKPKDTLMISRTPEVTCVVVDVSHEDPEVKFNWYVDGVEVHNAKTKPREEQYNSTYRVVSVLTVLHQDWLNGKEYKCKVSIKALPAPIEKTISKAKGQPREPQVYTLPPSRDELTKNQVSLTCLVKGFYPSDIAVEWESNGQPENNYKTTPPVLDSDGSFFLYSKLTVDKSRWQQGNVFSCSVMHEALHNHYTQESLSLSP
light: B1 light
notes: also called Ho Ab N325_07I
B10: GpH7-B3 variant P331_04F/GpL16-k0 (antibody, human IgG1, kappa)
heavy: not shown
light: B1 light
notes: also called Ho Ab P331_04F
B11: GpH7-B3 variant K326_20W/GpL16-k0 (antibody, human IgG1, kappa)
heavy: not shown
light: B1 light
notes: also called Ho Ab K326_20W
B12: GpH7-B3 variant K326_03V/GpL16-k0 (antibody, human IgG1, kappa)
heavy: not shown
light: B1 light
notes: also called Ho Ab K326_03V
B13: GpH7-B3 variant K326_18N/GpL16-k0 (antibody, human IgG1, kappa)
heavy: not shown
light: B1 light
notes: also called Ho Ab K326_18N
B14: GpH7-B3 variant P331_02A/GpL16-k0 (antibody, human IgG1, kappa)
heavy: not shown
light: B1 light
notes: also called Ho Ab P331_02A
B15: GpH7-B3 variant P331_16H/GpL16-k0 (antibody, human IgG1, kappa)
heavy: not shown
light: B1 light
notes: also called Ho Ab P331_16H
B16: GpH7-B3 variant P331_15Y/GpL16-k0 (antibody, human IgG1, kappa)
heavy: not shown
light: B1 light
notes: also called Ho Ab P331_15Y
B17: GpH7-B3 variant P238_09D/GpL16-k0 (antibody, human IgG1, kappa)
heavy: not shown
light: B1 light
notes: also called Ho Ab P238_09D
B18: GpH7-B3 variant N325_10E/GpL16-k0 (antibody, human IgG1, kappa)
heavy: not shown
light: B1 light
notes: also called Ho Ab N325_10E
B19: GpH7-B3 variant L328_10E/GpL16-k0 (antibody, human IgG1, kappa)
heavy: not shown
light: B1 light
notes: also called Ho Ab L328_10E
B20: GpH7-B3 variant N325_14T/GpL16-k0 (antibody, human IgG1, kappa)
heavy: not shown
light: B1 light
notes: also called Ho Ab N325_14T
B21: GpH7-B3 variant L328_13S/GpL16-k0 (antibody, human IgG1, kappa)
heavy: not shown
light: B1 light
notes: also called Ho Ab L328_13S
B22: GpH7-B3 variant L235_09D/GpL16-k0 (antibody, human IgG1, kappa)
heavy: not shown
light: B1 light
notes: also called Ho Ab L235_09D
B23: GpH7-B3 variant K334_12R/GpL16-k0 (antibody, human IgG1, kappa)
heavy: not shown
light: B1 light
notes: also called Ho Ab K334_12R
B24: GpH7-B3 variant L235_04F/GpL16-k0 (antibody, human IgG1, kappa)
heavy: not shown
light: B1 light
notes: also called Ho Ab L235_04F
B25: GpH7-B3 variant K334_20W/GpL16-k0 (antibody, human IgG1, kappa)
heavy: not shown
light: B1 light
notes: also called Ho Ab K334_20W
B26: GpH7-B3 variant P238_04F/GpL16-k0 (antibody, human IgG1, kappa)
heavy: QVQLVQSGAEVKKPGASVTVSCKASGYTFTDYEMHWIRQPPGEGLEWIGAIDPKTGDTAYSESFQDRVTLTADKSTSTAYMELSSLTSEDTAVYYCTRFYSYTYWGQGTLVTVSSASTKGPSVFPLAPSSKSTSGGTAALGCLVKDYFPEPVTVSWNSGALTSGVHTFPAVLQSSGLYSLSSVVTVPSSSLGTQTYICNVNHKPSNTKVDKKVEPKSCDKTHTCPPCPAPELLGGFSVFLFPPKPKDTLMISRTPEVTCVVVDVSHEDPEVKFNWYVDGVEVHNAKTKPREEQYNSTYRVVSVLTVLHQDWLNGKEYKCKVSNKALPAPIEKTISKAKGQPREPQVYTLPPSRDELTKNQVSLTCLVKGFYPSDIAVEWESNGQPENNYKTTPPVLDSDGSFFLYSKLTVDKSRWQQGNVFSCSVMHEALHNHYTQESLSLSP
light: B1 light
notes: also called Ho Ab P238_04F
B27: GpH7-B3 variant L328_14T/GpL16-k0 (antibody, human IgG1, kappa)
heavy: not shown
light: B1 light
notes: also called Ho Ab L328_14T
B28: GpH7-B3 variant K326_08L/GpL16-k0 (antibody, human IgG1, kappa)
heavy: not shown
light: B1 light
notes: also called Ho Ab K326_08L
B29: GpH7-B3 variant K326_04F/GpL16-k0 (antibody, human IgG1, kappa)
heavy: not shown
light: B1 light
notes: also called Ho Ab K326_04F
B30: GpH7-B3 variant I336_18N/GpL16-k0 (antibody, human IgG1, kappa)
heavy: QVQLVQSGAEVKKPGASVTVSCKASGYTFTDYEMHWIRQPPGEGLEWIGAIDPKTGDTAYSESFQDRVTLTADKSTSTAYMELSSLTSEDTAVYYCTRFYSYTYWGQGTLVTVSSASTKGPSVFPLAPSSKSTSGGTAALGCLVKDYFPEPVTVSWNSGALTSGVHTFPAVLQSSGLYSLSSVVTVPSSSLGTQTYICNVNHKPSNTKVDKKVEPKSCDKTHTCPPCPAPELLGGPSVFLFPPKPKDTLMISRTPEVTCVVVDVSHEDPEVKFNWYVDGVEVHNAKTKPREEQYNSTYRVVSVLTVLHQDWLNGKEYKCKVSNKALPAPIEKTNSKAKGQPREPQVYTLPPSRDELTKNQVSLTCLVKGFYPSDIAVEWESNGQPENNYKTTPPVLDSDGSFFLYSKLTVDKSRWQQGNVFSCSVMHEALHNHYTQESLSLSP
light: B1 light
notes: also called Ho Ab I336_18N
B31: GpH7-B3 variant P238_03V/GpL16-k0 (antibody, human IgG1, kappa)
heavy: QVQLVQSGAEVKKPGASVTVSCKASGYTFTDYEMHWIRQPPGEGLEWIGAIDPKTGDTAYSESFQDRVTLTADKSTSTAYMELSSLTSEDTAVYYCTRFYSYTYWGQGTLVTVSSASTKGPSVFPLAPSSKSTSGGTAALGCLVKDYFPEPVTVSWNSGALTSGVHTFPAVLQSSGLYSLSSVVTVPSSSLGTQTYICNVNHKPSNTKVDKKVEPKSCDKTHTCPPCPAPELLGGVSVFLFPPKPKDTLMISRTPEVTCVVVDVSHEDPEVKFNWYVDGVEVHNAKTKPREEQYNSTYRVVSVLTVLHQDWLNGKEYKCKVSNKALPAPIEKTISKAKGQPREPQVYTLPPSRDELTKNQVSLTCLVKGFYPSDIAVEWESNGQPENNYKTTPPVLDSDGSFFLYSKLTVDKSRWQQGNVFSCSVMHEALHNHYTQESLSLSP
light: B1 light
notes: also called Ho Ab P238_03V
B32: GpH7-B3 variant N325_13S/GpL16-k0 (antibody, human IgG1, kappa)
heavy: not shown
light: B1 light
notes: also called Ho Ab N325_13S
B33: GpH7-B3 variant K334_08L/GpL16-k0 (antibody, human IgG1, kappa)
heavy: not shown
light: B1 light
notes: also called Ho Ab K334_08L
B34: GpH7-B3 variant K334_04F/GpL16-k0 (antibody, human IgG1, kappa)
heavy: not shown
light: B1 light
notes: also called Ho Ab K334_04F
B35: GpH7-B3 variant K334_05P/GpL16-k0 (antibody, human IgG1, kappa)
heavy: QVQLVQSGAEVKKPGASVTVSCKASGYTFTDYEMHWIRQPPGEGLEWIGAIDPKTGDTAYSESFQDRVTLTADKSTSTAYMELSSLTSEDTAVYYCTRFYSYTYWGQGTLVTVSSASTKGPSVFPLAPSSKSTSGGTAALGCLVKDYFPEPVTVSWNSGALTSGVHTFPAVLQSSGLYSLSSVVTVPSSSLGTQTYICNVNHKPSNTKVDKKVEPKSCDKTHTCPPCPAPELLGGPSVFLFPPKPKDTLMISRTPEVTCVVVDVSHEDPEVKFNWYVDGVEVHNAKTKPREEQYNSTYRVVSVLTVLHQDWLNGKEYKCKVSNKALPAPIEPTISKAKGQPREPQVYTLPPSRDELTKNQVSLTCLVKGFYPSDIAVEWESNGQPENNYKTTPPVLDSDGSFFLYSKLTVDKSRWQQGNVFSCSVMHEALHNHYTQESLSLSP
light: B1 light
notes: also called Ho Ab K334_05P
B36: GpH7-B3 variant K334_19Q/GpL16-k0 (antibody, human IgG1, kappa)
heavy: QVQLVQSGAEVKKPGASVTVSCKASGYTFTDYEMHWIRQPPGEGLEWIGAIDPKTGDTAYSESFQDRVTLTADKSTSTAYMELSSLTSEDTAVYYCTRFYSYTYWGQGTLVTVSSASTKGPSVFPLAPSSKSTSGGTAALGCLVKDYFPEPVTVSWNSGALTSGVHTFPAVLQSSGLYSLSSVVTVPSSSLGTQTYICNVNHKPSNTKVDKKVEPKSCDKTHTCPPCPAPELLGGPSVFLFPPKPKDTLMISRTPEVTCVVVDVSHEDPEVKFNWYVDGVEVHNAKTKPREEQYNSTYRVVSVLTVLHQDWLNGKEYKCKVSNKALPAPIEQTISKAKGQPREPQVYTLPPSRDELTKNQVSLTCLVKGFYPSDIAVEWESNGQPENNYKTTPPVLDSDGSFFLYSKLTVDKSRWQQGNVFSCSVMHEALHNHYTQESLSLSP
light: B1 light
notes: also called Ho Ab K334_19Q
B37: GpH7-B3 variant N325_01G/GpL16-k0 (antibody, human IgG1, kappa)
heavy: not shown
light: B1 light
notes: also called Ho Ab N325_01G
B38: GpH7-B3 variant N325_15Y/GpL16-k0 (antibody, human IgG1, kappa)
heavy: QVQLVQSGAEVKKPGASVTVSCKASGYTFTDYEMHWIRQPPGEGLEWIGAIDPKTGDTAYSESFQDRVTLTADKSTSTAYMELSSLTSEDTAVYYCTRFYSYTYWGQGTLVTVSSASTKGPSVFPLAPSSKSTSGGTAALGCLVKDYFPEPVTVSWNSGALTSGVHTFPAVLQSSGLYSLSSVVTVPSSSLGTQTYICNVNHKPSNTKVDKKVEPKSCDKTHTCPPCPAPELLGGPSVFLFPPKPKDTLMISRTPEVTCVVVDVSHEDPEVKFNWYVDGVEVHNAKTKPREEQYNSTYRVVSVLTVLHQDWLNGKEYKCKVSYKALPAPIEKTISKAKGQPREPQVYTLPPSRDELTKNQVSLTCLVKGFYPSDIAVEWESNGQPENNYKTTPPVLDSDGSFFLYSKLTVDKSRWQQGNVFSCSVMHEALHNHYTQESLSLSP
light: B1 light
notes: also called Ho Ab N325_15Y
B39: GpH7-B3 variant N325_03V/GpL16-k0 (antibody, human IgG1, kappa)
heavy: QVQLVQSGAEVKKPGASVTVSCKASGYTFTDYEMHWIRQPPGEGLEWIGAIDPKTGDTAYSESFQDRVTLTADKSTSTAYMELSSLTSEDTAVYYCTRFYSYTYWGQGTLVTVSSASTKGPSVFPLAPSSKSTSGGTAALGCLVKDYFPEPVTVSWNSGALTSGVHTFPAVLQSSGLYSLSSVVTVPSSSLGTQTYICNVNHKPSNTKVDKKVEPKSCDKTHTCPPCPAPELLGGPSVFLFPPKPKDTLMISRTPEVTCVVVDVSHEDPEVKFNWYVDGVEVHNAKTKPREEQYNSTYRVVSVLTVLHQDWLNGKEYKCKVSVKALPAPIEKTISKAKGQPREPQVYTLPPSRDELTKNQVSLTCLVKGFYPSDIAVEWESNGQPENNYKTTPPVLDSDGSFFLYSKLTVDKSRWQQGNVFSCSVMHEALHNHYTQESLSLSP
light: B1 light
notes: also called Ho Ab N325_03V
B40: GpH7-B3 variant P271_08L/GpL16-k0 (antibody, human IgG1, kappa)
heavy: not shown
light: B1 light
notes: also called Ho Ab P271_08L
B41: GpH7-B3 variant L235_20W/GpL16-k0 (antibody, human IgG1, kappa)
heavy: not shown
light: B1 light
notes: also called Ho Ab L235_20W
B42: GpH7-B3 variant L234_09D/GpL16-k0 (antibody, human IgG1, kappa)
heavy: not shown
light: B1 light
notes: also called Ho Ab L234_09D
B43: GpH7-B3 variant K326_07I/GpL16-k0 (antibody, human IgG1, kappa)
heavy: not shown
light: B1 light
notes: also called Ho Ab K326_07I
B44: GpH7-B3 variant L234_20W/GpL16-k0 (antibody, human IgG1, kappa)
heavy: not shown
light: B1 light
notes: also called Ho Ab L234_20W
B45: GpH7-B3 variant L328_02A/GpL16-k0 (antibody, human IgG1, kappa)
heavy: not shown
light: B1 light
notes: also called Ho Ab L328_02A
B46: GpH7-B3 variant K326_15Y/GpL16-k0 (antibody, human IgG1, kappa)
heavy: not shown
light: B1 light
notes: also called Ho Ab K326_15Y
B47: GpH7-B3 variant N325_09D/GpL16-k0 (antibody, human IgG1, kappa)
heavy: not shown
light: B1 light
notes: also called Ho Ab N325_09D
B48: GpH7-B3 variant N325_08L/GpL16-k0 (antibody, human IgG1, kappa)
heavy: not shown
light: B1 light
notes: also called Ho Ab N325_08L
B49: GpH7-B3 variant L235_15Y/GpL16-k0 (antibody, human IgG1, kappa)
heavy: not shown
light: B1 light
notes: also called Ho Ab L235_15Y
B50: GpH7-B3 variant L328_09D/GpL16-k0 (antibody, human IgG1, kappa)
heavy: not shown
light: B1 light
notes: also called Ho Ab L328_09D
B51: GpH7-B3 variant L234_10E/GpL16-k0 (antibody, human IgG1, kappa)
heavy: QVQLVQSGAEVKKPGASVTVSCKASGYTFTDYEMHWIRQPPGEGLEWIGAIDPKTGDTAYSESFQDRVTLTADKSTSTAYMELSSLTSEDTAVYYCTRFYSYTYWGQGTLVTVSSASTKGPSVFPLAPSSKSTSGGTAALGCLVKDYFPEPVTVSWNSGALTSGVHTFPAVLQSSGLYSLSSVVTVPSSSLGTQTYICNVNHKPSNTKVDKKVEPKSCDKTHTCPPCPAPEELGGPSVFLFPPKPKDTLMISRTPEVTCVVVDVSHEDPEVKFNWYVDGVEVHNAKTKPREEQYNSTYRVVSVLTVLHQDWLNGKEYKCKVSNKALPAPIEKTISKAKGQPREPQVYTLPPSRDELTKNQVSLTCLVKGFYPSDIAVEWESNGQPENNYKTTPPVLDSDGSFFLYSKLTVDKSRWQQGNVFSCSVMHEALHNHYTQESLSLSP
light: B1 light
notes: also called Ho Ab L234_10E

The experiment has as its target T1, FcγRIIa R. As to the kind of experiment: SPR Biacore; vs GpH7-B3/GpL16-k0 =100. As to the method: Analysis of interaction between objective antibody and the FcγR was carried out using Biacore T100 (GE Healthcare). HBS-EP+ (GE Healthcare) was used as the running buffer, and the measurement temperature was set to 25° C. Chips produced by immobilizing the antigen peptide by the amine coupling method to a Series S Sencor Chip CM5 (GE Healthcare), or alternatively, chips produced by allowing preliminarily biotinylated antigen peptides to interact with and immobilize onto a Series S Sensor Chip SA (certified) (GE Healthcare) were used. Antibodies of interest were captured onto an antigen peptide-immobilized chip, and allowed to interact to each FcγR diluted with running buffer. To regenerate and repeatedly use the chip, the antibodies captured on the chip were washed off by reacting 10 mM glycine-HCl, pH 1.5.
The FcγR-binding activity of each antibody was assessed primarily using as an indicator the FcγR-binding activity and dissociation constant for FcγR.
Background: In SPR one partner is held on a chip, and binding of the other changes the refractive index at the surface.
Consider B1, for which the Ho/Con_2aR was 105 % of control.

In the case of B2, the Ho/Con_2aR is 56 % of control.

As to B3, the Ho/Con_2aR is 88.9 % of control.

In the case of B4, the Ho/Con_2aR is 95.7 % of control.

On to B5, for which the Ho/Con_2aR is 106 % of control.

For the molecule B6, the Ho/Con_2aR was 100 % of control.

Take B7: the Ho/Con_2aR was 43.3 % of control.

Consider B8, for which the Ho/Con_2aR is 106 % of control.

For the molecule B9, the Ho/Con_2aR was 77 % of control.

As for B10, the Ho/Con_2aR was 106 % of control.

Regarding B11, the Ho/Con_2aR is 120 % of control.

For the molecule B12, the Ho/Con_2aR is 139 % of control.

For B13, the Ho/Con_2aR is 113 % of control.

Take B14: the Ho/Con_2aR was 102 % of control.

On to B15, for which the Ho/Con_2aR was 100 % of control.

Turning to B16, the Ho/Con_2aR was 105 % of control.

Regarding B17, the Ho/Con_2aR is 13 % of control.

As for B18, the Ho/Con_2aR is 49.9 % of control.

For the molecule B19, the Ho/Con_2aR was 48.1 % of control.

B20: the Ho/Con_2aR is 60.2 % of control.

As for B21, the Ho/Con_2aR is 108 % of control.

B22: the Ho/Con_2aR was 73 % of control.

On to B23, for which the Ho/Con_2aR is 110 % of control.

In the case of B24, the Ho/Con_2aR was 98.9 % of control.

For B25, the Ho/Con_2aR is 96.4 % of control.

Regarding B26, the Ho/Con_2aR was 146 % of control.

For B27, the Ho/Con_2aR is 118 % of control.

For B28, the Ho/Con_2aR was 131 % of control.

As to B29, the Ho/Con_2aR was 133 % of control.

Regarding B30, the Ho/Con_2aR was 94.5 % of control.

Regarding B31, the Ho/Con_2aR is 116 % of control.

On to B32, for which the Ho/Con_2aR was 126 % of control.

Turning to B33, the Ho/Con_2aR was 105 % of control.

As to B34, the Ho/Con_2aR was 110 % of control.

With B35, the Ho/Con_2aR was 102 % of control.

For B36, the Ho/Con_2aR was 108 % of control.

With B37, the Ho/Con_2aR was 26.7 % of control.

Take B38: the Ho/Con_2aR is 42.6 % of control.

As to B39, the Ho/Con_2aR is 37.8 % of control.

Turning to B40, the Ho/Con_2aR is 102 % of control.

Regarding B41, the Ho/Con_2aR is 114 % of control.

Turning to B42, the Ho/Con_2aR was 42.8 % of control.

For the molecule B43, the Ho/Con_2aR was 133 % of control.

Regarding B44, the Ho/Con_2aR is 53.8 % of control.

On to B45, for which the Ho/Con_2aR was 97 % of control.

Turning to B46, the Ho/Con_2aR is 134 % of control.

Regarding B47, the Ho/Con_2aR is 74.8 % of control.

As to B48, the Ho/Con_2aR was 95 % of control.

B49: the Ho/Con_2aR was 111 % of control.

In the case of B50, the Ho/Con_2aR is 68.8 % of control.

Regarding B51, the Ho/Con_2aR is 39.9 % of control.
